Laboratory results taken from the supplement of paper PMC7125110.
± gives the standard error. For part of these data: This sample holds only a part of the variants without activity.

B1: glmS ribozyme (parent)
chain: AUAAAAGCGCCAGAACUACAGAAAUGUAGUUGACGAGGAGGAGGUUUAUCGAAUUUUCGGCGGAUGCCUCCAAA

Columns and labels:
Settings in all cases: with glucosamine-6-phosphate
glucosamine-6-phosphate [1] = variants of: B1; assay: kcat; higher = faster cleavage; RNA array
Outline: (§1)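 Over ~14 h at 37 °C, tiles were imaged as glucosamine-6-phosphate (40 μM to 10 mM) in HEPES/KCl/Mg(OAc)2 buffer flowed across sequenced MiSeq chips. The chips carried barcoded ribozyme variants transcribed in situ by E. coli RNA polymerase and tracked with a hybridised Cy3 probe. After normalisation to baseline and to non-cleaving reference variants, one- or two-exponential decay fits of per-tile medians gave kobs. kcat and KM followed from weighted Michaelis–Menten fits across concentrations.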

glucosamine-6-phosphate [2] = variants of: B1; assay: self-cleavage kobs at 640 uM GlcN6P; higher = faster cleavage; RNA array
Outline: as §1

glucosamine-6-phosphate [3] = variants of: B1; assay: self-cleavage kobs at 2500 uM GlcN6P; higher = faster cleavage; RNA array
Outline: as §1

glucosamine-6-phosphate [4] = variants of: B1; assay: self-cleavage kobs at 10000 uM GlcN6P; higher = faster cleavage; RNA array
Outline: as §1

glucosamine-6-phosphate [5] = variants of: B1; assay: self-cleavage kobs at 40 uM GlcN6P; higher = faster cleavage; RNA array
Outline: as §1

glucosamine-6-phosphate [6] = variants of: B1; assay: KM; higher = weaker cofactor use; RNA array
Outline: as §1

glucosamine-6-phosphate [7] = variants of: B1; assay: self-cleavage kobs at 160 uM GlcN6P; higher = faster cleavage; RNA array
Outline: as §1

Variant	kcat (glucosamine-6-phosphate [1]) [s⁻¹]	self-cleavage kobs at 640 uM GlcN6P (glucosamine-6-phosphate [2]) [s⁻¹]	self-cleavage kobs at 2500 uM GlcN6P (glucosamine-6-phosphate [3]) [s⁻¹]	self-cleavage kobs at 10000 uM GlcN6P (glucosamine-6-phosphate [4]) [s⁻¹]	self-cleavage kobs at 40 uM GlcN6P (glucosamine-6-phosphate [5]) [s⁻¹]	KM (glucosamine-6-phosphate [6]) [µM]	self-cleavage kobs at 160 uM GlcN6P (glucosamine-6-phosphate [7]) [s⁻¹]
A6U C70G	3.01e-05 ± 9.6e-06	3.81e-05 ± 1.3e-05	5.38e-05 ± 1.1e-05	1.91e-05 ± 6.9e-06	–	–	–
C10U U55C	3.56e-05 ± 9.4e-06	–	–	1.93e-05 ± 9e-06	< 1e-05	–	–
C10U U55A	1.86e-05 ± 2.2e-06	–	–	1.77e-05 ± 7.8e-06	–	–	–
A6G U30G	0.000154 ± 1.6e-05	–	5.13e-05 ± 1.9e-05	9.98e-05 ± 1.4e-05	< 1e-05	5370 ± 1400	< 1e-05
C10G C61A	1.32e-05 ± 9.6e-07	< 1e-05	–	< 1e-05	< 1e-05	180 ± 67	–
A6U U30C C68U	2.13e-05 ± 7.2e-06	< 1e-05	–	–	–	–	–
C10U G35C	< 1e-05	< 1e-05	–	–	< 1e-05	–	< 1e-05
G9U U47C	< 1e-05	< 1e-05	< 1e-05	–	–	–	< 1e-05
C11A A52U C67G	2.85e-05 ± 4.6e-06	–	–	–	–	–	–
C11A A52G C58G	1.09e-05 ± 2.8e-06	–	–	–	–	–	< 1e-05
G7U A53C C58A U69G C70U	0.000741 ± 0.00023	–	0.000875 ± 0.00036	–	7.41e-05 ± 3.3e-05	–	–
C8U A36C	< 1e-05	–	–	< 1e-05	–	–	–
C10G U56A	< 1e-05	< 1e-05	–	–	–	–	< 1e-05
C10U U30C G59A G60A C70U	< 1e-05	–	–	–	< 1e-05	–	–
G7U G13A	< 1e-05	–	< 1e-05	–	< 1e-05	–	–
C11A G44U G59U	0.000238 ± 5.3e-06	7.85e-05 ± 2.2e-05	0.00015 ± 4.7e-05	0.000212 ± 4e-05	–	1330 ± 77	–
C8U G37A C58G	< 1e-05	–	–	–	–	–	–
C10U U47C	< 1e-05	< 1e-05	–	–	< 1e-05	–	–
G7A U47G C61U	1.24e-05 ± 4e-06	–	–	–	–	–	–
C10U A39U	1.59e-05 ± 5e-07	< 1e-05	–	–	< 1e-05	6310 ± 460	< 1e-05
C10A U55G	< 1e-05	–	–	–	–	–	< 1e-05
C10A G51U G63C	1.02e-05 ± 4.6e-07	–	< 1e-05	–	–	731 ± 360	–
